In article PMC2811000:

Assays:
[1] = target: acrylodan-labeled C-terminal catalytic kinase/phosphatase domain of PNKP (human); assay: other fluorescence titration
[2] = target: acrylodan-labeled FHA domain of PNKP (human) (UniProt Q96T60); assay: other fluorescence titration

| Substance | AC fluorescence quenching [1] [%] | AC fluorescence quenching [2] [%] | Kd [2] [nM] | stoichiometry N [2] | Kd [1] [nM] |
| --- | --- | --- | --- | --- | --- |
| CK2-phosphorylated XRCC1 (from UniProt P18887 1-633) (natural protein) | 8 | 50 | 3.5 | 1.08 | – |
| non-phosphorylated XRCC1 (from UniProt P18887 1-633) (natural protein) | – | – | – | – | 43 |
